These sequences were tested on F1*sub RNA substrate (template-directed ligation) (assay: fraction ligated after 30 min (ligated reads / total reads); higher = more ligase activity; sequences stand for … in GAGACCGCAACTGAAAAGTTGT…AGTTCTGCACGTAGAAGCAAAAGGC). Conditions: 42 °C.
How it was run: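 Templates from an oligo pool were PCR-amplified, transcribed with T7 and gel-purified to give the ribozyme variants. Ligated and unligated products were separated on gel, reverse transcribed using barcoded primers, and read on a MiSeq. A quality filter of ≥20 was applied to core bases. Fraction ligated was taken as ligated reads as a share of all reads per variant.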

Row | Sequence | fraction ligated
1 | TATCACTTGTCAAACACTTTGGATGGGTTGA [3d1811] | 0.802
2 | TATCACTTGCGTAGACACTTTGATGGGTTGA [3d1633] | 0.803
3 | TATCATTGTCTAAGACCTTTGGATGGGTTGA [3d1192] | 0.758
4 | TATCACTTTCGTAAACCTTTGGATGGGTTGA [3d1520] | 0.788
5 | TATCCTTGTCGTAAGACACTTTATGGGTTGA [3d1104] | 0.0278
6 | ATCACTTGTCGTAAACACTTTGGAGGGTTGA [3d217] | 0.0797
7 | TCACTTTCGTAAGACACTTTGGATGGGTTGA [3d6] | 0.145
8 | TTCACTTGTGTAAGACACTTTGGATGGGTTG [3d401] | 0.726
9 | TATCACTTGCGAAACACTTTGGATGGGTTGA [3d1614] | 0.819
10 | TTCACTTGTGTAAGACACTTTGATGGGTTGA [3d396] | 0.122
11 | TTCACTTGTCTAAGACACTTTGGATGGGTTG [3d415] | 0.752
12 | TATCACTTTGTAAGACACTTTGGAGGGTTGA [3d1475] | 0.0352
13 | TATCACTTGTCGTAAGACACTTGATGGTTGA [3d2241] | 0.0196
14 | TACACTTGTTAAGACACTTTGGATGGGTTGA [3d617] | 0.244
15 | TATCACTTGTCGAAACCTTTGGATGGGTTGA [3d1916] | 0.78
16 | TTCACTTGTCGAAGACACTTTGGAGGGTTGA [3d425] | 0.157
17 | TATCACTTTGTAAGACACTTTGGATGGGTTG [3d1478] | 0.82
18 | TATCATTTCGTAAGACACTTTGGAGGGTTGA [3d1152] | 0.042
19 | TATACTTTCGTAAGACACTTTGGATGGGTTGA [2d72] | 0.542
20 | TATCACTTTCGTAAGACACTGGATGGGTTGA [3d1561] | 0.774
21 | TATCACTTGTCGTAACACTTTGGATGGGTTA [3d2001] | 0.545
22 | TATCATTGTCGTAAGACATTGGATGGGTTGA [3d1262] | 0.801
23 | TACACTTGCGTAAACACTTTGGATGGGTTGA [3d605] | 0.036

Row | Sequence | fraction ligated
24 | TACACTTGTCGTAAGACCTTTGGATGGGTTG [3d706] | 0.659
25 | TATCACTGTCGTAAGACACTTTGGATGGGTT [3d1462] | 0.365
26 | TTCACTTTCGTAAACACTTTGGATGGGTTGA [3d359] | 0.0493
27 | TATCCTTGTCTAAGAACTTTGGATGGGTTGA [3d1019] | 0.764
28 | TATCACTTGTCGTAAGAACTTGGATGGGTTA [3d2164] | 0.404
29 | TACCTTGTCGTAAGACACTTTGATGGGTTGA [3d541] | 0.304
30 | TATCATTTGTAAGACACTTTGGATGGGTTGA [3d1140] | 0.803
31 | ACACTTGTCGTAGACACTTTGGATGGGTTGA [3d33] | 0.552
32 | TTCACTGTCGTAAGAACTTTGGATGGGTTGA [3d345] | 0.788
33 | TATCACTTGTGTAAGACACTTTGATGGGTTA [3d1797] | 0.0515
34 | TATACTTGTCGTAAGACACTTTGGTGGGTTA [3d940] | 0.00259
35 | TATCACTTGTTAAGACATTTGGATGGGTTGA [3d1710] | 0.835
36 | TATCACTTGCTAAGACACTTTGGTGGGTTGA [3d1608] | 0.11
37 | TATCACTTGTGTAAGCACTTTGGTGGGTTGA [3d1759] | 0.117
38 | TTCACTTGTCTAAGACACTTTGGATGGTTGA [3d413] | 0.661
39 | TATCATTGTCGTAGACATTTGGATGGGTTGA [3d1219] | 0.809
40 | TATCCTTGTCGAAGACCTTTGGATGGGTTGA [3d1033] | 0.747
41 | TATCACTTGCGTAAACCTTTGGATGGGTTGA [3d1640] | 0.821
42 | TATCACTTGTCGTAAGAACTTTGGAGGGTTG [3d2178] | 0.0318
43 | TATCACTTGTCGAGACACTTTGGATGGTTGA [3d1912] | 0.166
44 | TATACTTGTGTAAGAACTTTGGATGGGTTGA [3d833] | 0.814
45 | TATCACTTGTCGTAAACCTTTGGAGGGTTGA [3d2070] | 0.15
46 | TATCACGCGTAAGACACTTTGGATGGGTTGA [3d1294] | 0.814

Row | Sequence | fraction ligated
47 | TATCACTTGTGTAAGACACTTTGGATGGTTGA [2d191] | 0.198
48 | TATCACTTGTCGTAAGACACTTTGGAGGTTGA [2d293] | 0.0113
49 | TATCTTGTCGTAAGACACTTTGGATGGGTTGA [2d69] | 0.791
50 | TATCCTTTCGTAAGACACTTTGGTGGGTTGA [3d979] | 0.0729
51 | TATCACTTGTGTAAGACACTTTGAGGGTTGA [3d1795] | 0.0251
52 | TATCACTTGTCGTAAGCACTTTGGGGGTTGA [3d2141] | 0.129
53 | TATACTTGTCGTAACACTTTGGATGGGTTGA [3d871] | 0.27
54 | ATCACTTGTCGTAAGAACTTTGGATGGTTGA [3d236] | 0.273
55 | TATCACTTGTCTAGACACTTTGGATGGTTGA [3d1833] | 0.361
56 | TATCACTTGTCGTAGACACTTTGATGGGTTG [3d2047] | 0.754
57 | TATCACTTGTCGTGACCTTTGGATGGGTTGA [3d1984] | 0.784
58 | TATCCTTGTCTAAGACACTTTGGTGGGTTGA [3d1024] | 0.19
59 | ATCACTTTCGTAAGACACTTTGGATGGTTGA [3d137] | 0.191
60 | TATCACTTGTGTAAGACACTTGGAGGGTTGA [3d1789] | 0.011
61 | TATCACTGTCGTAAGAACTTTGGAGGGTTGA [3d1422] | 0.0317
62 | TATCACTTGCGAAGACACTTGGATGGGTTGA [3d1619] | 0.785
63 | TATCATGTCGTAAGACACTTTGGAGGGTTGA [3d1136] | 0.0722
64 | TATCACTGTCGTAAGACACTTTGATGGGTTA [3d1451] | 0.351
65 | TATCATTGTCGTAAACACTTTGATGGGTTGA [3d1231] | 0.597
66 | TATCACTTGCGTAAGACATTTGGTGGGTTGA [3d1676] | 0.0926
67 | TATACTGTCGTAAGACACTTTGGATGGGTTA [3d794] | 0.0511
68 | TATCACTGCGTAAGACCTTTGGATGGGTTGA [3d1334] | 0.857
69 | ATCACTTGTGTAGACACTTTGGATGGGTTGA [3d158] | 0.864

Row | Sequence | fraction ligated
70 | TACACTTGTCGTAAGACACTTTGGTGGGTTA [3d729] | 0.00637
71 | TTCACTTGCGTAAGACCTTTGGATGGGTTGA [3d378] | 0.311
72 | TATCACTTGTCTAGACCTTTGGATGGGTTGA [3d1827] | 0.737
73 | TTCATGTCGTAAGACACTTTGGATGGGTTGA [3d317] | 0.468
74 | ATACTGTCGTAAGACACTTTGGATGGGTTGA [3d48] | 0.361
75 | TATCACTTGTCGTAAGACACTTTGGGGGTTA [3d2271] | 0.0237
76 | TACACTTGTGTAAGACACTTTGGAGGGTTGA [3d628] | 0.0881
77 | TATCACTTGTGTAAGCACTTTGATGGGTTGA [3d1758] | 0.811
78 | TATCACTTGTCGTAAGACCTTTGGATGGTTG [3d2204] | 0.139
79 | TATCACTTGTGTAGACACTTTGATGGGTTGA [3d1738] | 0.824
80 | TATCACTTGTCGTAAGCACTTTGGAGGTTGA [3d2145] | 0.143
81 | TATACTTGTCTAAGACACTTTGGATGGGTTGA [2d75] | 0.797
82 | TATCACTTTCGAAGACACTTGGATGGGTTGA [3d1499] | 0.779
83 | TATCATTGTCGTAAGACCTTTGGAGGGTTGA [3d1258] | 0.104
84 | TATCATTGTCGTAAGCATTTGGATGGGTTGA [3d1239] | 0.796
85 | TATCACTTGTCGTAAGACCTTGGATGGGTTA [3d2188] | 0.771
86 | TTCACTTTCGTAAGCACTTTGGATGGGTTGA [3d360] | 0.466
87 | TTCCTTGTCGTAAGACCTTTGGATGGGTTGA [3d308] | 0.737
88 | TTCATTGTCGTAAGACACTTTGGATGGTTGA [3d333] | 0.421
89 | TATCACTTGCGTAGACACTTTGGTGGGTTGA [3d1634] | 0.0947
90 | TATCACTTGTTAAGACACTTGGATGGGTTGA [3d1711] | 0.784
91 | TATCACTTGTCGTAGCACTTTGGATGGGTTG [3d2012] | 0.792
92 | TACATTGTCGTAAGACACTTTGGATGGGTTA [3d564] | 0.0607

Row | Sequence | fraction ligated
93 | TACACTTGTCTAAGACACTTGGATGGGTTGA [3d639] | 0.087
94 | TATCACTTGTCGTAAGAACTTGATGGGTTGA [3d2160] | 0.788
95 | TACACTTTCGTAAGCACTTTGGATGGGTTGA [3d590] | 0.0355
96 | TACACTTGCGTAAGACACTTGGATGGGTTGA [3d610] | 0.0197
97 | TATCACTGTCGTAAACCTTTGGATGGGTTGA [3d1399] | 0.806
98 | TATCCTTGTCGTAAGACATTTGATGGGTTGA [3d1091] | 0.775
99 | TTCATTGTCGTAAGACACTTTGGATGGGTTG [3d335] | 0.285
100 | TATCACTTTCGAAGACACTTTGGAGGGTTGA [3d1502] | 0.0243
101 | TATCACTTGTTAAGACACTTTGATGGGTTGA [3d1712] | 0.786
102 | TATCACTTGTCGTAAGCCTTTGATGGGTTGA [3d2115] | 0.718
103 | TATCATTGTCGTAAGAACTTGGATGGGTTGA [3d1248] | 0.831
104 | TATCATTGTCGTAGACACTTTGGATGGGTTA [3d1225] | 0.595
105 | TATCATTTCGTAAGACACTTTGGATGGTTGA [3d1153] | 0.101
106 | TATCCTTGCGTAAGACACTTTGGATGGTTGA [3d997] | 0.0475
107 | TACACTTGTCGAAGACACTTTGATGGGTTGA [3d653] | 0.0665
108 | TATCATTGTCTAAGACACTTTGGATGGTTGA [3d1198] | 0.169
109 | TTCACTTGTCTAAGACACTTTGGTGGGTTGA [3d411] | 0.035
110 | ATCACTTGTCAAGACACTTTGGATGGGTTGA [3d171] | 0.749
111 | TATCCTTGCGTAAACACTTTGGATGGGTTGA [3d988] | 0.807
112 | TACACTTGTCGTAAGCCTTTGGATGGGTTGA [3d683] | 0.0763
